From patent US20240261378

Molecular target: TRIM16 GST-fusion protein (substrate of the ULK1 kinase assay)

B1: Flag-ULK1 wt (protein)
chain: MEPGRGGTETVGKFEFSRKDLIGHGAFAVVFKGRHREKHDLEVAVKCINKKNLAKSQTLLGKEIKILKELKHENIVALYDFQEMANSVYLVMEYCNGGDLADYLHAMRTLSEDTIRLFLQQIAGAMRLLHSKGIIHRDLKPQNILLSNPAGRRANPNSIRVKIADFGFARYLQSNMMAATLCGSPMYMAPEVIMSQHYDGKADLWSIGTIVYQCLTGKAPFQASSPQDLRLFYEKNKTLVPTIPRETSAPLRQLLLALLQRNHKDRMDFDEFFHHPFLDASPSVRKSPPVPVPSYPSSGSGSSSSSSSTSHLASPPSLGEMQQLQKTLASPADTAGFLHSSRDSGGSKDSSCDTDDFVMVPAQFPGDLVAEAPSAKPPPDSLMCSGSSLVASAGLESHGRTPSPSPPCSSSPSPSGRAGPFSSSRCGASVPIPVPTQVQNYQRIERNLQSPTQFQTPRSSAIRRSGSTSPLGFARASPSPPAHAEHGGVLARKMSLGGGRPYTPSPQVGTIPERPGWSGTPSPQGAEMRGGRSPRPGSSAPEHSPRTSGLGCRLHSAPNLSDLHVVRPKLPKPPTDPLGAVFSPPQASPPQPSHGLQSCRNLRGSPKLPDFLQRNPLPPILGSPTKAVPSFDFPKTPSSQNLLALLARQGVVMTPPRNRTLPDLSEVGPFHGQPLGPGLRPGEDPKGPFGRSFSTSRLTDLLLKAAFGTQAPDPGSTESLQEKPMEIAPSAGFGGSLHPGARAGGTSSPSPVVFTVGSPPSGSTPPQGPRTRMFSAGPTGSASSSARHLVPGPCSEAPAPELPAPGHGCSFADPITANLEGAVTFEAPDLPEETLMEQEHTEILRGLRFTLLFVQHVLEIAALKGSASEAAGGPEYQLQESVVADQISLLSREWGFAEQLVLYLKVAELLSSGLQSAIDQIRAGKLCLSSTVKQVVRRLNELYKASVVSCQGLSLRLQRFFLDKQRLLDRIHSITAERLIFSHAVQMVQSAALDEMFQHREGCVPRYHKALLLLEGLQHMLSDQADIENVTKCKLCIERRLSALLTGICA
in vitro phosphorylation (γ32P ATP, autoradiography), wt vs kinase-dead K46I ULK1: comparing active vs. kinase dead ULK1 we established that TRIM16 was a substrate for ULK1 phosphorylation
